Reference: PMC8631942

Assays:
SHP1 = SHP1 (UniProt P29350); assay: GFP-Trap co-IP, SHP1 blot; conditions: reference: BTLA wild type
SHP2 = SHP2 (UniProt Q06124); assay: GFP-Trap co-IP, SHP2 blot; conditions: reference: BTLA wild type

Substance: BTLA (from UniProt Q7Z6A9) BTLAYYYF (Y282F)
- binding against the reference (SHP1; sites Y282): lost
- binding against the reference (SHP2; sites Y282): lost

Substance: BTLA (from UniProt Q7Z6A9) BTLAYYFY (Y257F)
- binding against the reference (SHP1; sites Y257): lost
- binding against the reference (SHP2; sites Y257): lost
